Assay results taken from patent publication US20200002434A1 (BIOSION, published 2020).
Values belong to the molecule of their own block, whether it stands above or below them.

What was measured:
[1] = biological target: recombinant human ErbB2 extracellular domain (ErbB2-ECD) (human) (UniProt P04626); test: competitive ELISA vs biotin-Trastuzumab on ErbB2-ECD; control
[2] = biological target: T1, human ErbB2 on ErbB2-positive cells (human, UniProt P04626 23-1255); test: cell-based or functional assay
[3] = biological target: T2, recombinant human ErbB2 extracellular domain (ErbB2-ECD) (human, UniProt P04626 23-652); test: capture ELISA, recombinant ErbB2-ECD
T2 construct: extracellular domain; Coated on plates or used biotin-labeled in solution (capture ELISA); also called Human ErbB2-ECD; rhErbB2
Procedure: (§1) The corresponding purified IgG of five antibodies of this invention were also evaluated for their binding activity to recombinant human ErbB2 by capture ELISA. The procedure is briefly described as following: The 96-well plates were coated with 0.5 μg/ml anti-ErbB2 antibody overnight, blocked by 1% BSA in PBST at 37° C. for one hour. Add serial diluted sample of biotin-human ErbB2-ECD started with 2 μg/ml with 1:5 serial dilution. Wash the plate 3 times with PBST and add 100 ul of HRP-streptavidin (1:5000) to each well. Incubate for another 40 min at 37° C. Wash the plate 3 times with PBST and add 100 ul/well of TMB to develop at RT for 15 min followed by quenching with 50 ul 1N HCl. Read the plates at 450 nm for OD's value. Calculate the binding EC50 by using Prism software and the results are in Table 8 below
The variable domains of the heavy and light chain of the anti-ErbB2 monoclonal antibodies (Table 12, above) were cloned in-frame to human IgG1 heavy-chain and kappa light-chain constant regions, respectively.

[4] = biological target: T3, recombinant Macaca mulatta ErbB2-ECD (Macaca mulatta, UniProt I0FM22 23-652); test: indirect ELISA, coated ErbB2-ECD
T3 construct: extracellular domain
Procedure: (§2) Using indirect ELISA described in Example 1, the binding activity of antibodies of this invention to recombinant ErbB2-ECD derived from different species such as mouse, rat, Macaca mulatta, Macaca fascicularis and human, was examined. Briefly. Coat 96-well ELISA plates with 1 ug/ml recombinant ErbB2-ECD of different species with 100 ul/well and incubate at 4° C. for overnight. Remove the coating solution by discarding and tapping gently on a filter paper. Add 200 ul/well blocking buffer, incubate at 37° C. for 1-2 hours. Add purified antibody of this invention and incubate at 37° C. for one hour. Wash the plate 3 times with PBST, add goat anti-mouse IgG-HRP 100 ul/well, incubate at 37° C. for one hour. Wash the plate 3 times with PBST, add 100 ul/well TMB after 15 min, add 50 ul/well 1N HCl. Read the plate with Microplate Reader at 450 nm wavelength.
(§3) Following the same method described in Example 5, the binding activity of the chimeric antibodies of this invention was examined for binding recombinant ErbB2-ECD derived from different species such as mouse, rat Macaca mulatta, Macaca fasciculari and human.

[5] = biological target: T4, recombinant rat ErbB2-ECD (rat, UniProt P06494 23-654); test: indirect ELISA, coated ErbB2-ECD
T4 construct: extracellular domain
Procedure: as §2, §3

[6] = biological target: T5, recombinant mouse ErbB2-ECD (mouse, UniProt P70424 23-653); test: indirect ELISA, coated ErbB2-ECD
T5 construct: extracellular domain
Procedure: as §2, §3

[7] = biological target: T2, recombinant human ErbB2 extracellular …; test: capture ELISA, recombinant ErbB2-ECD; remark: listed apart in the source
[8] = biological target: T2, recombinant human ErbB2 extracellular …; test: capture ELISA, coated antibody, biotin-human ErbB2-ECD titrated
Procedure: as §1

[9] = biological target: T1, human ErbB2 on ErbB2-positive cells; test: cell-based or functional assay; remark: listed apart in the source
[10] = biological target: T3, recombinant Macaca mulatta ErbB2-ECD; test: indirect ELISA, coated ErbB2-ECD 1 ug/ml
Procedure: as §2

[11] = biological target: T4, recombinant rat ErbB2-ECD; test: indirect ELISA, coated ErbB2-ECD 1 ug/ml
Procedure: as §2

[12] = biological target: T5, recombinant mouse ErbB2-ECD; test: indirect ELISA, coated ErbB2-ECD 1 ug/ml
Procedure: as §2

[13] = biological target: T1, human ErbB2 on ErbB2-positive cells; test: cell-based or functional assay; remark: listed apart in the source

T5 sequence (P70424 23-653): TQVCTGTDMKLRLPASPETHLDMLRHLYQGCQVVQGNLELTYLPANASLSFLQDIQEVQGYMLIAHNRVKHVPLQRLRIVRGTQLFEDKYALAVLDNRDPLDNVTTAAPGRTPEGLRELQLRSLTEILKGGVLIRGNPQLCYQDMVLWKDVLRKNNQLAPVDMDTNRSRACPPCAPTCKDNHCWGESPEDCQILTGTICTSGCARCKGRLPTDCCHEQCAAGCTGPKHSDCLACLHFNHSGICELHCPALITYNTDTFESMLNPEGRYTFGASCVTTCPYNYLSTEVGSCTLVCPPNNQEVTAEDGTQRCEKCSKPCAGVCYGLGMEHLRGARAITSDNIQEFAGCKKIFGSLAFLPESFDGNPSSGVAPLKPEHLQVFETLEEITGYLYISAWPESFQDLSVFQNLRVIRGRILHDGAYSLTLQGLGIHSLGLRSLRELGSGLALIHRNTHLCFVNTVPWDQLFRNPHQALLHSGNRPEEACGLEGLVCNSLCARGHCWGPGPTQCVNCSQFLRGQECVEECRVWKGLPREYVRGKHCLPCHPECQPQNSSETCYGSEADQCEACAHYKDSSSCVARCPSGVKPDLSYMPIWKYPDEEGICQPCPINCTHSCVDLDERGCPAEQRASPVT
T4 sequence (P06494 23-654): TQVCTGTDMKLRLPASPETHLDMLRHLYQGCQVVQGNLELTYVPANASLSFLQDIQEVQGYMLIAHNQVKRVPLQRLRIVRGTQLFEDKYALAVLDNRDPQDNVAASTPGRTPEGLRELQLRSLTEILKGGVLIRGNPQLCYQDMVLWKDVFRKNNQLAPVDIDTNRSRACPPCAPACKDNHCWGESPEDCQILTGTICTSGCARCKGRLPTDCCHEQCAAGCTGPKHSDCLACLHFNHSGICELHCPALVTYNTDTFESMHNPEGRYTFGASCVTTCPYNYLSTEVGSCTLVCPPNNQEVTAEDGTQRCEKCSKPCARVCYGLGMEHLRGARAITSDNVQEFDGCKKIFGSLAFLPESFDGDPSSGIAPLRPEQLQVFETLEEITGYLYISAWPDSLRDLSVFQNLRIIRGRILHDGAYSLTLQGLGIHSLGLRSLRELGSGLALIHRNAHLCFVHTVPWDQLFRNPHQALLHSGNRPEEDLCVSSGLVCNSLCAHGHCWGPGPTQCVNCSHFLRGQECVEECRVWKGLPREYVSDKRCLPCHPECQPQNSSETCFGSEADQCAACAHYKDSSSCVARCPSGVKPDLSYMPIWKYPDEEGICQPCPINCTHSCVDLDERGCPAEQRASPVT

B1: 4H2 chimera (antibody, V domains shown)
VH: QVQLQQSGAELARPGASVKMSCKASGFTFTSYTIHWVKQRPGQGLDWIGYINPSSGYTTYNQRFKDKATLTADKSSSTAYMQLSSLTSADSAVYYCARASAYSLDYWGQGTTLTVSS
VL: DIQMTQSPSSLSASLGGKVTITCKASQDIDRYIAWYQHKPGKGPRLLIHYTSTLQPGIPSRFSGSGSGRNYSFSISNLEPEDIATYYCLKYDNLLWTFGGGTKLEIK
notes: also called 4H2 chimeric antibody
- BT474 cell proliferation inhibition IC50 (hIgG + 4H2c) [2]: 19.3 nM
- EC50 [3]: 0.118 nM
- binding result [4]: binds
- binding result [5]: no binding
- binding result [6]: no binding

B2: 4G6 chimera (antibody, V domains shown)
VH: QVQLQQSGAELARPGASVKMSCKASGYTFTSYTMHWVKQRPGQGLEWIGYINPSSAYTNYNQKFKDKATLTADKSSSTANMQLNSLTSEDSAVYYCARASAYSLDYWGQGTALTVSS
VL: DIQMTQSPSSLSASLGGKVTITCKASQDINKYIAWYQHKPGKGPRLLIHSTSTLYPGIPSRFSGSGSGRDYSFRITNLEPEDIATYYCLQYDNLLWTFGGGTKVGIR
notes: also called 4G6 chimeric antibody
- BT474 cell proliferation inhibition IC50 (hIgG + 4G6c) [2]: 36.3 nM
- EC50 [3]: 0.02 nM
- binding result [4]: binds
- binding result [5]: no binding
- binding result [6]: no binding

B4: 4G6 mouse anti-ErbB2 monoclonal antibody (antibody, mouse IgG1, V domains shown)
VH: QVQLQQSGAELARPGASVKMSCKASGYTFTSYTMHWVKQRPGQGLEWIGYINPSSAYTNYNQKFKDKATLTADKSSSTANMQLNSLTSEDSAVYYCARASAYSLDYWGQGTALTVSS
VL: DIQMTQSPSSLSASLGGKVTITCKASQDINKYIAWYQHKPGKGPRLLIHSTSTLYPGIPSRFSGSGSGRDYSFRITNLEPEDIATYYCLQYDNLLWTFGGGTKVGIR
notes: also called 4G6C9B8; IgG 4G6
- EC50 [8]: 0.021 nM
- BT474 cell proliferation inhibition IC50 (hIgG + 4G6) [9]: ~1.24 nM
- binding result [10]: binds
- binding result [11]: no binding
- binding result [12]: no binding
- Internalization rate in SKBR3 cells, FITC signal, 2-hour [13]: 18.5

Other lines, results leading:

- OD450 [1]: 2.91 OD
Molecule: normal human IgG (antibody)

- OD450 [1]: 2.8 OD
Molecule: normal mouse IgG (antibody)

- BT474 cell proliferation inhibition IC50 (hIgG + 5G9c) [2]: 43.4 nM
- EC50 [3]: 0.049 nM
- binding result [4]: binds
- binding result [5]: no binding
- binding result [6]: no binding
- EC50 [7]: 0.044 nM
B3: 5G9 chimera (antibody, V domains shown)
VH: QVQLQQSGAELARPGASVKMSCKTSGYTFSSYTIHWVKQRPGQGLDWIGYINPSSDYTAYNQKFRDKATLTADQSSNTAYMQLSSLASADSAVYYCARASAFSLDFWGQGTTLTVSS
VL: DIQMTQSPSSLSASLGGKVTISCKASHDIDRYIAWYQHKPGKGPRLLIHYTSTLQPGIPSRFSGSGSGRDYSFSISNLEPEDVATYYCLNYDNLLWTFGGGTKLEIT
notes: also called 5G9 chimeric; 5G9 chimeric antibody

- EC50 [8]: 0.156 nM
- BT474 cell proliferation inhibition IC50 (hIgG + 5F12) [9]: 0.7 nM
- binding result [10]: binds
- binding result [11]: no binding
- binding result [12]: no binding
- Internalization rate in SKBR3 cells, FITC signal, 2-hour [13]: 22.6
B5: 5F12 mouse anti-ErbB2 monoclonal antibody (antibody, mouse IgG1, V domains shown)
VH: QVQLQQSGAELARPGASVKMSCKASGYTFTSYTMHWIKQRPGQGLEWIGYINPSSSYTNYNQNFKDKATLTADKSSSTANMQLNSLTSEDSAVYYCARASSYSLDYWGQGTALTVSS
VL: DIQMTQSPSSLSTSLGGKVTITCKASQDINKYIAWYQHKPGKGPRLLIHSTSTLYPGIPSRFSGSGSGKDYSFRITNLEPEDIATYYCLQYDNLLWTFGGGTKLGIR
notes: also called 5F12E5A8; IgG 5F12
